Measured values as given in paper PMC3785480.

Experiments:
[1] = molecular target: recombinant BB0347 (Borrelia burgdorferi); assay: ELISA; Figure 5, rBB0347 with full-length Fn; which protein was coated is not told; KD = concentration of added protein at half-maximal binding, assuming saturation
[2] = molecular target: recombinant BB0347 (Borrelia burgdorferi); assay: ELISA

“human fibronectin (from UniProt P02751 32-2477) (natural protein)” gave a Kd [1] of 0.2 µM and a percent reduction of binding with 50 µM heparin [2] of 40%.
